Test [1] concerns the target T1, botulinum neurotoxin type A (BoNT/A), purified holotoxin (Clostridium botulinum, UniProt P0DPI0 2-1296). As to the kind of experiment: yeast display.
The target of test [2] is T1, botulinum neurotoxin type A (BoNT/A), …. Briefly: yeast displayed scFv, flow cytometry. A general note: A flow cytometer gives signals particle by particle.
Test [3] shares this target.
For test [4] the target is unchanged. Briefly: Kinexa.
For test [5] the target is unchanged. Briefly: cell-based or functional assay.
Test [6] shares this target. The source holds these as a separate data set.
Test [7] shares this target. The source holds these as a separate data set.

Read-outs that look alike come from different tables or passages of the source.

B1: AR4 scFv (scFv, V domains shown)
VH: QVQLQESGGGLVQPGGSLRLSCAASGFTFEEHYMYWVRQAPGKGLEWVATISDGGSYTYYPDSVEGRFTTSRDNSKNTLYLQMNSLRAEDTAIYYCSRYRYDDAMDYWGQGTLVTVSS
VL: EIVLTQSPATLSLSPGERATISCRASESVDSYGHSFMQWYQQKPGQAPRLLIYRASNLEPGIPARFSGSGSGTDFTLTISSLEPEDFAVYYCQQGNEVPFTFGQGTKVEIK
What is called Kd is the equilibrium constant for the complex coming apart. A low value points to a tighter complex. For B1, the “fold higher affinity than HuC25 scFv” value in test [1] amounted to 37 fold. Moreover, the Kd in test [2] is 0.023 nM; in test [3] it was 0.0226 nM.

B2: AR2 scFv (scFv, V domains shown)
VH: QVQLQESGGGLVQPGGSLRLSCAASGFTFSDHYMYWVRQAPGKGLEWVATISDGGSYTYYPDSVKGRFTTSRDNSKNTLYLQMNSLRAEDTAIYYCSRYRYDDAMDYWGQGTLVTVSS
VL: EIVLTQSPATLSLSPGERATISCRASESVDSYGHSFMQWYQQKPGQAPRLLIYRASNLEPGIPARFSGSGSGTDFTLTISSLEPEDFAVYYCQQGNEVPFTFGQGTKVEIK
Take B2: in test [2], the affinity, expressed as Kd, was 0.0614 nM and the “fold increase against parental AR1” value turned out to be 2.8 fold.

B3: HuC25 scFv (scFv, V domains shown)
VH: QVQLQESGGGLVQPGGSLRLSCAASGFTFSDYYMYWVRQAPGKGLEWVATISDGGSYTYYPDSVKGRFTISRDNSKNTLYLQMNSLRAEDTAMYYCSRYRYDDAMDYWGQGTLVTVSS
VL: EIVLTQSPATLSLSPGERATISCRASESVDSYGHSFMQWYQQKPGQAPRLLIYRASNLEPGIPARFSGSGSGTDFTLTISSLEPEDFAVYYCQQSNEDPFTFGQGTKVEIK
In the case of B3, the Kd in test [2] is 0.844 nM. This counts as sub-nanomolar.

B4: AR3 scFv (scFv, V domains shown)
VH: QVQLQESGGGLVQPGGSLRLSCAASGFTFGEHYMYWVRQAPGKGLEWVATISDGGSYTYYPDSVEGRFTTSRDNSKNTLYLQMNSLRAEDTAIYYCSRYRYDDAMDYWGQGTLVTVSS
VL: EIVLTQSPATLSLSPGERATISCRASESVDSYGHSFMQWYQQKPGQAPRLLIYRASNLEPGIPARFSGSGSGTDFTLTISSLEPEDFAVYYCQQGNEVPFTFGQGTKVEIK
In turn, B4 returned a Kd in test [2] of 0.019 nM.

B5: AR1 scFv (scFv, V domains shown)
VH: QVQLQESGGGLVQPGGSLRLSCAASGFTFSDYYMYWVRQAPGKGLEWVATISDGGSYTYYPDSVKGRFTISRDNSKNTLYLQMNSLRAEDTAIYYCSRYRYDDAMDYWGQGTLVTVSS
VL: EIVLTQSPATLSLSPGERATISCRASESVDSYGHSFMQWYQQKPGQAPRLLIYRASNLEPGIPARFSGSGSGTDFTLTISSLEPEDFAVYYCQQGNEVPFTFGQGTKVEIK
Take B5: in test [2], the Kd was 0.169 nM and the “fold improvement of KD against HuC25” value amounted to 5 fold.

B6: AR4 IgG (antibody, V domains shown)
VH: QVQLQESGGGLVQPGGSLRLSCAASGFTFEEHYMYWVRQAPGKGLEWVATISDGGSYTYYPDSVEGRFTTSRDNSKNTLYLQMNSLRAEDTAIYYCSRYRYDDAMDYWGQGTLVTVSS
VL: EIVLTQSPATLSLSPGERATISCRASESVDSYGHSFMQWYQQKPGQAPRLLIYRASNLEPGIPARFSGSGSGTDFTLTISSLEPEDFAVYYCQQGNEVPFTFGQGTKVEIKR
B6: the “fold higher affinity than HuC25 IgG” value in test [4] stood at 34 fold.

B7: C25 scFv (scFv)
scFv: QVQLQESGGGLVKPGGSLKLSCAASGFTFSDYYMYWVRQTPEKRLEWVATISDGGSYTYYPDSVKGRFTISRDNAKNNLYLQMSSLKSEDTAMYYCSRYRYDDAMDYWGQGTTVTVSSGGGGSGGGGSGGGGSDIELTQSPASLAVSLGQRATISCRASESVDSYGHSFMQWYQQKPGQPPKLLIYRASNLEPGIPARFSGSGSGTDFTLTINPVEADDVATYYCQQSNEDPFTFGSGTKLEIKR
Consider B7, for which the “prolongation of time to neuroparalysis” value in test [5] turned out to be 2.7 fold.

B8: 3D12 scFv (scFv, V domains shown)
VH: QVQLVQSGGGVVHPGRSLKLSCAGSGFTFSDYDMHWVRQAPGKGLEWVAVMWFDGTEKYSAESVKGRFTISRDNSKNTLFLQMNSLRADDTAVYYCAREPDWLLWGDRGALDVWGQGTTVTVSS
VL: DIVMTQSPSTLSASVGDRVTITCRASQSISSWLAWYQQKPGKAPKLLMYEASSLESGVPSRFSGSGSGTEFTLTISSLQPDDFAAYYCQHYNTYPYTFGQGTKLEIK
Turning to B8, the affinity in test [6], expressed as Kd, was 0.943 nM. In test [5], the “prolongation of time to neuroparalysis” value worked out at 1.5 fold.

B9: RAZ1 IgG (antibody, V domains shown)
VH: QVQLVQSGGGVVHPGRSLKLSCAGSGFTFSDYDMHWVRQAPGKGLEWVAVMWFDGTEKYSAESVKGRFTISRDNSKNTLFLQMNSLRADDTAVYYCAREPDWLLWGDRGALDVWGQGTTVTVSS
VL: DIVMTQSPSTLSASVGDRVTITCWASQSISSRLAWYQQKPGKAPKLLMYEATSLGSGVPSRFSGSGSGTEFTLTISSLQPDDFAAYYCQHYDTYPYTFGQGTKLEIKR
Take B9: in test [7], the “fold higher affinity than 3D12 IgG” value came out at 35 fold.

For the origin of these results see US20110171235A1 (University of California, published 2011).
